Legend:
Type in all cases: biochemical
[1] = Screening of protease for hemoglobin A1c determination (pH 7.5); conditions: pH 7.5, 37° C. 60 minutes; 550 nm, reference 595 nm; FOD923 developing solution
Description: (§1) A screening method is shown in which a protease that cleaves a glycated peptide from N-terminal-glycated pentapeptide of a hemoglobin β-chain without substantially cleaving a glycated amino acid or glycated peptide from N-terminal-glycated pentapeptide of a hemoglobin α-chain. Each 10 μl of a sample for screening was placed in 3 wells of a 96-well plate, respectively. Then, the first well was supplemented with 50 μl of an α-solution, the second well was supplemented with 50 μl of a β-solution, and the third well was supplemented with 50 μl of a control solution. After the plate was incubated at 37° C. for 60 minutes, 50 μl of distilled water and 50 μl of a developing solution were added, and the whole was left at room temperature for 30 minutes. Then, the absorbance at a measuring wavelength of 550 nm and a reference wavelength of 595 nm were determined using a Microplate Reader (model 550, manufactured by Bio-Rad), to select a sample having a difference in the absorbance between the β-solution-supplemented well and the control solution-supplemented well larger than a difference in the absorbance between the α-solution-supplemented well and the control solution-supplemented well. Thus the protease of object was screened. The samples to be used include: carboxypeptidase B (manufactured by Sigma-Aldrich Corp.); carboxypeptidase W (manufactured by Wako Pure Chemical Industries, Ltd.); carboxypeptidase Y (manufactured by Oriental Yeast Co., Ltd.); protease (type XXVII nagase: manufactured by Sigma-Aldrich Corp.); protease (type VIII Subtilisin Carlsberg: manufactured by Sigma-Aldrich Corp.); protease (type XXIV Bacterial: manufactured by Sigma-Aldrich Corp.); Proteinase K (manufactured by Wako Pure Chemical Industries, Ltd.); neutral proteinase (manufactured by Toyobo Co., Ltd.); carboxypeptidase A (manufactured by Wako Pure Chemical Industries, Ltd.); thermolysin (manufactured by Wako Pure Chemical Industries, Ltd.); and distilled water. To confirm a degree of color development caused by a developing solution, 10 μl of 1 mM FVH (manufactured by Peptide Institute Inc.) and 1 mM FVL (manufactured by Peptide Institute Inc.) were placed in a well severally, followed by adding 50 μl of the control solution. The whole was incubated at 37° C. for 60 minutes. Then, 50 μl of distilled water and 50 μl of the developing solution were added and the whole was left at room temperature for 30 minutes, followed by the determination in a similar manner as described above.
(§2) 0.2 mM β-Glycated pentapeptide (manufactured by Peptide Institute Inc.)
(§3) 0.09% 4-Aminoantipyrine (manufactured by Wako Pure Chemical Industries, Ltd.)
(§4) 0.06% TODB (manufactured by Dojindo Laboratories)
(§5) 15 U/ml Peroxidase (manufactured by Sigma-Aldrich Corp.)
(§6) Various bacteria were cultured with shaking in Difco Lactobacilli MRS Broth (manufactured by Becton, Dickinson and Company), a MM medium (2.5% mannose, 2.5% beer yeast extract, pH7.0), and a YPG medium (2% glucose, 1% polypeptone, 2% yeast extract, 0.1% potassium dihydrogen phosphate, 0.05% magnesium sulfate heptahydrate, pH 7.0) at a temperature of from 28 to 30° C. for 1 to 7 days. Then, cells were removed by centrifugation from the culture solutions to obtain culture supernatants. A sample was prepared by diluting the obtained culture supernatants 10-fold with a 10 mM potassium phosphate buffer (pH7.5), and the determination was performed in a similar manner as Example 1.

[2] = Screening of protease (pH 3.5), control solution without substrate; conditions: pH 3.5, no substrate; 550 nm, reference 595 nm
Description: (§7) A screening method is shown in which a protease that cleaves a glycated peptide from N-terminal-glycated pentapeptide of a hemoglobin β-chain without substantially cleaving a glycated amino acid or glycated peptide from N-terminal-glycated pentapeptide of a hemoglobin α-chain. Each 10 μl of a sample for screening was placed in 3 wells of a 96-well plate, respectively. Then, the first well was supplemented with 50 μl of an α-solution, the second well was supplemented with 50 μl of a β-solution, and the third well was supplemented with 50 μl of a control solution. After the plate was incubated at 37° C. for 60 minutes, 50 μl of pH-regulating solution and 50 μl of a developing solution were added, and the whole was left at room temperature for 30 minutes. Then, the absorbance at a measuring wavelength of 550 nm and a reference wavelength of 595 nm were determined using a Microplate Reader (model 550, manufactured by Bio-Rad), to select a sample having a difference in the absorbance between the β-solution-supplemented well and the control solution-supplemented well larger than a difference in the absorbance between the α-solution-supplemented well and the control solution-supplemented well. Thus the protease of object was screened. The samples to be used include: carboxypeptidase B (manufactured by Sigma-Aldrich Corp.); carboxypeptidase W (manufactured by Wako Pure Chemical Industries, Ltd.); carboxypeptidase Y (manufactured by Oriental Yeast Co., Ltd.); protease (type XXVII nagase: manufactured by Sigma-Aldrich Corp.); protease (type VIII Subtilisin Carlsberg: manufactured by Sigma-Aldrich Corp.); protease (type XXIV Bacterial: manufactured by Sigma-Aldrich Corp.); Proteinase K (manufactured by Wako Pure Chemical Industries, Ltd.); neutral proteinase (manufactured by Toyobo Co., Ltd.); and distilled water. To confirm a degree of color development caused by a developing solution, 10 μl of 1 mM FVH (manufactured by Peptide Institute Inc.) and 1 mM FVL (manufactured by Peptide Institute Inc.) were placed in a well severally, followed by adding 50 μl of the control solution. The whole was incubated at 37° C. for 60 minutes. Then, 50 μl of a pH-regulating solution and 50 μl of the developing solution were added and the whole was left at room temperature for 30 minutes, followed by the determination in a similar manner as described above.
(§8) 50 mM Acetate-sodium acetate (pH3.5)
(§9) 0.09% 4-aminoantipyrine (manufactured by Wako Pure Chemical Industries, Ltd.)
as §4, §5

[3] = Screening of protease (pH 7.5), control solution without substrate; conditions: pH 7.5, no substrate; 550 nm, reference 595 nm
Description: as §1, §3, §4, §5, §6

[4] = Screening of protease for hemoglobin A1c determination (pH 3.5); conditions: pH 3.5, 37° C. 60 minutes; 550 nm, reference 595 nm; FOD923 developing solution
Description: as §7, §8, §2, §9, §4, §5

[5] = as above; conditions: pH 3.5, 37° C. 60 minutes; 550 nm, reference 595 nm; FOD923 developing solution; remark: listed apart in the source
Description: as §7, §8
(§10) 0.2 mM α-Glycated pentapeptide (manufactured by Peptide Institute Inc.)
as §9, §4, §5

[6] = Screening of protease for hemoglobin A1c determination (pH 7.5); conditions: pH 7.5, 37° C. 60 minutes; 550 nm, reference 595 nm; FOD923 developing solution; remark: listed apart in the source
Description: as §1, §10, §3, §4, §5, §6

B1: protease type XXVII: protease (type XXVII nagase: manufactured by Sigma-Aldrich Corp.) (protein, UniProt P00782 108-382, looked up)
Subtilisin BPN': AQSVPYGVSQIKAPALHSQGYTGSNVKVAVIDSGIDSSHPDLKVAGGASMVPSETNPFQDNNSHGTHVAGTVAALNNSIGVLGVAPSASLYAVKVLGADGSGQYSWIINGIEWAIANNMDVINMSLGGPSGSAALKAAVDKAVASGVVVVAAAGNEGTSGSSSTVGYPGKYPSVIAVGAVDSSNQRASFSSVGPELDVMAPGVSIQSTLPGNKYGAYNGTSMASPHVAGAAALILSKHPNWTNTQVRSSLENTTTKLGDSFYYGKGLINVQAAAQ
For B1, the “β-Solution (absorbance, RAW DATA)” value [1] was 0.031, the “control solution (absorbance, RAW DATA)” value [2] was 0.019 and the “control solution (absorbance, RAW DATA)” value [3] was 0.016. For the same molecule, the “β-Solution (absorbance, RAW DATA)” value [4] was 0.021, the “α-Solution (absorbance, RAW DATA)” value [5] was 0.025 and the “α-Solution (absorbance, RAW DATA)” value [6] was 0.021.

— patent US7943337B2, “Method for screening a protease” (Asahi Kasei Pharma Corporation, priority 2003, dated 2011)
